{
  "source": "paper PMC8367383",
  "about": "“A CTP-dependent gating mechanism enables ParB spreading on DNA” (eLife, 2021)",
  "molecules": {"B1": {"name": "C. crescentus ParB (Q35C) on a cysteine-less ParB (C297S) background (natural protein, UniProt B8GW30 1-304, looked up)", "chain": "MESVVVGEPGMSEGRRGLGRGLSALLGEVDAAPACAPGEQLGGSREAPIEILQRNPDQPRRTFREEDLEDLSNSIREKGVLQPILVRPSPDTAGEYQIVAGERRWRAAQRAGLKTVPIMVRELDDLAVLEIGIIENVQRADLNVLEEALSYKVLMEKFERTQENIAQTIGKSRSHVANTMRLLALPDEVQSYLVSGELTAGHARAIAAAADPVALAKQIIEGGLSVRETEALARKAPNLSAGKSKGGRPPRVKDTDTQALESDLSSVLGLDVSIDHRGSTGTLTITYATLEQLDDLSNRLTRGI", "notes": "ParB, Caulobacter crescentus, with the stated substitutions; pET21b construct, so probably made in E. coli; source: purified (HIS-Select Cobalt gravity flow column, PD-10)"}, "B2": {"name": "C. crescentus ParB (L224C) on a cysteine-less ParB (C297S) background (natural protein, UniProt B8GW30 1-304, looked up)", "chain": "B1 chain with C35Q, L224C", "notes": "as for B1"}, "B3": {"name": "C. crescentus ParB (I304C) on a cysteine-less ParB (C297S) background (natural protein, UniProt B8GW30 1-304, looked up)", "chain": "B1 chain with C35Q, I304C", "notes": "as for B1"}, "B4": {"name": "22 bp parS (dsDNA)", "DNA 1": "GGATGTTTCACGTGAAACATCC", "DNA 2": "GGATGTTTCACGTGAAACATCC"}},
  "key": {"[1]": {"target": "T1, C. crescentus ParB (WT); ParB-His6 (Caulobacter vibrioides, UniProt B8GW30, E102A)", "T1 construct": "full length, C-terminal His6 (pET21b), made in E. coli; dimer", "T1 sequence (B8GW30 whole entry E102A)": "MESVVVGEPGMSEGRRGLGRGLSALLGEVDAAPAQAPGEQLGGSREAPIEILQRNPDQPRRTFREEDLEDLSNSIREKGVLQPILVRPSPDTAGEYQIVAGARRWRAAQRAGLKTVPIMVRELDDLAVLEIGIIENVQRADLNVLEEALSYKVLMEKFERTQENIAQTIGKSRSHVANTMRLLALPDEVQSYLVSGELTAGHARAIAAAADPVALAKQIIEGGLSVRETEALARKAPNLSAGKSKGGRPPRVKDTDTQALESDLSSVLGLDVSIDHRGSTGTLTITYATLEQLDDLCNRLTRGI", "assay": "DRaCALA membrane-spotting", "type": "binding", "conditions": "labelled compound (5 nM 32P-alpha-CTP with 30 uM unlabelled CTP); 1.5 uM 22 bp parS DNA; 10 mM CaCl2, pH 8.0, room temperature"}, "[2]": {"target": "T2, C. crescentus ParB (WT); ParB-His6 (Caulobacter vibrioides, UniProt B8GW30)", "T2 construct": "full length, C-terminal His6 (pET21b), made in E. coli; dimer", "assay": "EnzChek inorganic phosphate release", "type": "biochemical", "conditions": "0-1000 uM CTP, 1 uM ParB, 0.5 uM 22 bp parS DNA; Mg2+, pH 8.0, 25 C; rates only in figure"}, "[3]": {"target": "C. crescentus ParB (L224C I304C), dual-cysteine variant (C. crescentus) (UniProt B8GW30)", "assay": "cross-linking; BMOE double crosslinking of 8 µM dual-cysteine ParB variant ± 0.5 µM DNA (22 bp parS, circular 3 kb parS or scrambled parS plasmid) ± 1 mM CTP; denaturing polyacrylamide and agarose gels; post-treatment with Benzonase or TEV protease; protein released from gel slices of the HMW smear"}, "CTP": {"target": "CTP", "assay": "membrane-spotting assay (DRaCALA)", "conditions": "highest protein concentration point (about 12.5 µM on x axis); 5 nM radiolabeled CTP α-P32, 30 µM unlabeled CTP, 1.5 µM 22 bp parS DNA; parent: est. 13; read off a plot"}, "[4]": {"target": "the molecule itself", "assay": "cross-linking; BMOE (1 mM) crosslinking of symmetry-related cysteines; 8 µM single-cysteine ParB variant ± 0.5 µM 22 bp parS DNA ± CTP (0-1000 µM); 10 mM Tris-HCl pH 7.4, 100 mM NaCl, 1 mM MgCl2; 5 min at room temperature; denaturing polyacrylamide gel"}, "ParB∆CTD-His6": {"target": "T3, ParB∆CTD-His6 (Caulobacter crescentus, UniProt B8GW30 11-254)", "T3 sequence": "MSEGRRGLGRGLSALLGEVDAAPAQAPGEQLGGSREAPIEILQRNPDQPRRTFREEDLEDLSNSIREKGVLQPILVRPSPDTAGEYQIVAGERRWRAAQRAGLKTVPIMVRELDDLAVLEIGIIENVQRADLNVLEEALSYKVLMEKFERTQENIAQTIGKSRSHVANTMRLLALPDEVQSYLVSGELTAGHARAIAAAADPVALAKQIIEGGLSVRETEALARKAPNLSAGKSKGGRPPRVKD", "assay": "crystal structure; no nucleotide; BLI: 100 mM Tris-HCl pH 8.0, 100 mM NaCl, 1 mM MgCl2, 0.005% Tween 20, 22 °C, 1 µM ParB dimer (5 µM for Q35C); crosslinking: 8 µM ParB, 0.5 µM DNA, ±1 mM CTP", "conditions": "protein: recombinant; tags: C-terminal His6; chain copies: 2; blunt, self-complementary palindrome"}},
  "note": "Substitutions are numbered along the chain they refer to. Names and notes keep the numbering of the source.",
  "data": [
    {"molecule": "Nc1ccn([C@@H]2O[C@H](COP(=O)(O)OP(=O)(O)OP(=O)(O)O)[C@@H](O)[C@H]2O)c(=O)n1", "note": "[CTP]", "values": [
      {"measurement": "DRaCALA membrane-spotting", "setting": "[1]", "value": "ParB (E102A) did not hydrolyze CTP (Figure 6B) but nevertheless bound CTP efficiently"},
      {"measurement": "EnzChek inorganic phosphate release", "setting": "[2]", "value": "The CTPase rates were measured at increasing concentration of CTP"}
    ]},
    {"molecule": "C. crescentus ParB (L224C I304C), dual-cysteine variant (from UniProt B8GW30 1-304)", "values": [
      {"measurement": "stoichiometry N", "setting": "[3]", "value": 2}
    ]},
    {"molecule": "C. crescentus ParB (WT) E102A", "values": [
      {"measurement": "response", "setting": "CTP", "value": 24, "unit": "%"}
    ]},
    {"molecule": "C. crescentus ParB (WT) E135A", "values": [
      {"measurement": "response", "setting": "CTP", "value": 26, "unit": "%"}
    ]},
    {"molecule": "C. crescentus ParB (WT) G79S", "values": [
      {"measurement": "response", "setting": "CTP", "value": 3.5, "unit": "%"}
    ]},
    {"molecule": "C. crescentus ParB (WT) N136A", "values": [
      {"measurement": "response", "setting": "CTP", "value": 0.7, "unit": "%"}
    ]},
    {"molecule": "C. crescentus ParB (WT) Q58A", "values": [
      {"measurement": "response", "setting": "CTP", "value": 10, "unit": "%"}
    ]},
    {"molecule": "C. crescentus ParB (WT) Q82A", "values": [
      {"measurement": "response", "setting": "CTP", "value": 15, "unit": "%"}
    ]},
    {"molecule": "C. crescentus ParB (WT) R60A", "values": [
      {"measurement": "response", "setting": "CTP", "value": 0.7, "unit": "%"}
    ]},
    {"molecule": "C. crescentus ParB (WT) R104A", "values": [
      {"measurement": "response", "setting": "CTP", "value": 0, "unit": "%"}
    ]},
    {"molecule": "C. crescentus ParB (WT) R139A", "values": [
      {"measurement": "response", "setting": "CTP", "value": 1.5, "unit": "%"}
    ]},
    {"molecule": "C. crescentus ParB (WT) S74A", "values": [
      {"measurement": "response", "setting": "CTP", "value": 0.5, "unit": "%"}
    ]},
    {"molecule": "B1", "values": [
      {"measurement": "binding result", "setting": "[4]", "value": "binds"}
    ]},
    {"molecule": "B2", "values": [
      {"measurement": "binding result", "setting": "[4]", "value": "binds"}
    ]},
    {"molecule": "B3", "values": [
      {"measurement": "binding result", "setting": "[4]", "value": "binds"}
    ]},
    {"molecule": "B4", "values": [
      {"measurement": "binding result", "setting": "ParB∆CTD-His6", "value": "binds"}
    ]}
  ]
}
